“And” between values parts separate entries of the source, which are not always exact repeats. Equal values may be shown once.
What was measured:
Experiment in all cases: cell-based or functional assay
human NPRA [1] = biological target: T1, human NPRA (human, UniProt P16066 33-1061)
T1 sequence (looked up): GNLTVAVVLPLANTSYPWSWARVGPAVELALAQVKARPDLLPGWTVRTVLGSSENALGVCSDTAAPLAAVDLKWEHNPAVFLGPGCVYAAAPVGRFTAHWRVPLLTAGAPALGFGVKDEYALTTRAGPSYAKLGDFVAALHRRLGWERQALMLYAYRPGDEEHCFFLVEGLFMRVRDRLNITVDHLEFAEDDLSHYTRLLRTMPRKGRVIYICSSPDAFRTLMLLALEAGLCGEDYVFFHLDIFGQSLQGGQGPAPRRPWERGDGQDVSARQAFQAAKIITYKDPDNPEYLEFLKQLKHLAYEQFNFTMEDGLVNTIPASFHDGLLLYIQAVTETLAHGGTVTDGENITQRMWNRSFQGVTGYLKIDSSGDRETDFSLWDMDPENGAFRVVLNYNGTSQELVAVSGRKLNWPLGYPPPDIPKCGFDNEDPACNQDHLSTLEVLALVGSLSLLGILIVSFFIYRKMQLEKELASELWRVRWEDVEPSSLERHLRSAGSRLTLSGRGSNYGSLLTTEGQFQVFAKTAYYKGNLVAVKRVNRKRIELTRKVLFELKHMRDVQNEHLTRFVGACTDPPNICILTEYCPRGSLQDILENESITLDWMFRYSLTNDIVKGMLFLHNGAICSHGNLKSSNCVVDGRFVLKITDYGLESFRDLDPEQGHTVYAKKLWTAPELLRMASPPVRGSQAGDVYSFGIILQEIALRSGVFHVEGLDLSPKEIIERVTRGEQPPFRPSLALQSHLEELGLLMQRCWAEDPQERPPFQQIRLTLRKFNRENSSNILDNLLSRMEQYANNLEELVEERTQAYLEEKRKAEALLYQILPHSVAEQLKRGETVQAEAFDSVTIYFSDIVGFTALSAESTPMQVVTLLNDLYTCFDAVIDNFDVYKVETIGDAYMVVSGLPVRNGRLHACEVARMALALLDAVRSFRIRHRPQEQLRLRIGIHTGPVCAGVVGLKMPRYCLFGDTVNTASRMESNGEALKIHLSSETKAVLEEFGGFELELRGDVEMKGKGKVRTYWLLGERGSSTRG

rat NPR-A = biological target: T2, rat NPR-A (rat, UniProt P18910 29-1057)
T2 sequence (looked up): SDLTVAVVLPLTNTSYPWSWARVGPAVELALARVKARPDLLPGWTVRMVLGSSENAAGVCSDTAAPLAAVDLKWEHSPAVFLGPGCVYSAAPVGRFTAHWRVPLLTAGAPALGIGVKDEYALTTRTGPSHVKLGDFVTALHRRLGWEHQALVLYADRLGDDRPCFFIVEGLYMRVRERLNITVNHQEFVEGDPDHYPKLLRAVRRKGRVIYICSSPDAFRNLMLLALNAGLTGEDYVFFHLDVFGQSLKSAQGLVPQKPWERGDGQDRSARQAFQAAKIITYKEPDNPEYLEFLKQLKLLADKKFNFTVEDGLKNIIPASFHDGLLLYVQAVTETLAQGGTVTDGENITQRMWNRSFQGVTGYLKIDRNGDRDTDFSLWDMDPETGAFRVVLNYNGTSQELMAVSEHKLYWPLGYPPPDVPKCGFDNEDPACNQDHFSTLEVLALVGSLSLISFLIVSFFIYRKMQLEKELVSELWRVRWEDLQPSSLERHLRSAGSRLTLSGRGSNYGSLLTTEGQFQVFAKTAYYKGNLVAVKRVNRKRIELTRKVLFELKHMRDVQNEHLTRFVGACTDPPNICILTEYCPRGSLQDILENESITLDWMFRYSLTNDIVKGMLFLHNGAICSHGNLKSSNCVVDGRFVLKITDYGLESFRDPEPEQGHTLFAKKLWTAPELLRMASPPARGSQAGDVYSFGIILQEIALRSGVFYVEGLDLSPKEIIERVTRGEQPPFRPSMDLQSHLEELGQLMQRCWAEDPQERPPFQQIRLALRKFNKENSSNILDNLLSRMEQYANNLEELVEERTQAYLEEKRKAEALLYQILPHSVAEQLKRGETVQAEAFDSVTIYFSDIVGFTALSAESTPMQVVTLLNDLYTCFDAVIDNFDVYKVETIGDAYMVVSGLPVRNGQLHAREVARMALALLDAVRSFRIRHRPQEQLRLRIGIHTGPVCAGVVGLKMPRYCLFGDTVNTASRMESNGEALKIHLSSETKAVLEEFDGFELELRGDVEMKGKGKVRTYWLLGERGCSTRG

human NPRA [2] = biological target: T3, human NPRA (human, UniProt P16066 33-1061); remark: listed apart in the source
T3 sequence (looked up): T1 sequence (looked up)

B1: TPP-10361 (antibody, human IgG1, lambda)
heavy: not shown
light: QSVLTQPPSVSGAPGQRVTISCTGSSSNIGAGYDVHWYQQLPGTAPKLLIYGSGSGSGSGSGSPDGGSGGSLRRSSCFGGRMDRIGAQSGLGCNSFRYGSYGSGGSGSGSGNRPSGVPDRFSGSKSGTSASLAITGLQAEDEADYYCQSYDSSLSGVVFGGGTKLTVLGQPKAAPSVTLFPPSSEELQANKATLVCLISDFYPGAVTVAWKADSSPVKAGVETTTPSKQSNNKYAASSYLSLTPEQWKSHRSYSCQVTHEGSTVEKTVAPTECS
activity rcs (human NPRA [1]): 20%
average rel logEC50 (human NPRA [1]): -0.1 delta logEC50 vs TPP-5661
rel. activity rcs (human NPRA [1]): -0.1 delta logEC50 vs TPP-5661
rel. logEC50 pcs 5 (human NPRA [1]): -0.1 delta logEC50 vs TPP-5661

B2: TPP-10355 (antibody, human IgG1, lambda)
heavy: not shown
light: QSVLTQPPSVSGAPGQRVTISCTGSSSNIGAGYDVHWYQQLPGTAPKLLIYGNSNRPSGVPDRFSGSKSGTSASLAITGLQAEDEADYYCAAWNPNPNPNPNPNGGSGGSLRRSSCFGGRMDRIGAQSGLGCNSFRYGSNPNPNPNPNPNVFGSGTKVTVLGQPKAAPSVTLFPPSSEELQANKATLVCLISDFYPGAVTVAWKADSSPVKAGVETTTPSKQSNNKYAASSYLSLTPEQWKSHRSYSCQVTHEGSTVEKTVAPTECS
activity rcs (human NPRA [1]): 94%
average rel logEC50 (human NPRA [1]): -0.2 delta logEC50 vs TPP-5661
rel. activity rcs (human NPRA [1]): 0.1 delta logEC50 vs TPP-5661
rel. logEC50 pcs 2 (human NPRA [1]): -0.6 delta logEC50 vs TPP-5661
rel. logEC50 pcs 3 (human NPRA [1]): 0.2 delta logEC50 vs TPP-5661
rel. logEC50 pcs 4 (human NPRA [1]): -0.3 delta logEC50 vs TPP-5661

B3: TPP-11156 (antibody, human IgG1, lambda)
heavy: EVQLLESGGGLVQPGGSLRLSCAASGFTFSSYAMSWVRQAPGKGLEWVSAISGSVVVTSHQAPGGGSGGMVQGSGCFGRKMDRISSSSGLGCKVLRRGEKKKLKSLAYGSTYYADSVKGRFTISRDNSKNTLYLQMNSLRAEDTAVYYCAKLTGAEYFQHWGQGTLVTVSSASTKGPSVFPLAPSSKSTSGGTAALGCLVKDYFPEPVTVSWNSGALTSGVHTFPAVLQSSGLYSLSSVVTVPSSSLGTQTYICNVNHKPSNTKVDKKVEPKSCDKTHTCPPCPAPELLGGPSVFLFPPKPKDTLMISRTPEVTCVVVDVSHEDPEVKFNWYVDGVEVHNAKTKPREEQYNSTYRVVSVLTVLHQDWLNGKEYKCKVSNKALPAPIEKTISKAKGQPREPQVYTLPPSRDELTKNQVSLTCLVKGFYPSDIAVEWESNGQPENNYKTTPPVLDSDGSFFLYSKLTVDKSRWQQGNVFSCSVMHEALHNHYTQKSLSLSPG
light: QSVLTQPPSVSGAPGQRVTISCTGSSSNIGAGYDVHWYQQLPGTAPKLLIYGNSNRPSGVPDRFSGSKSGTSASLAITGLQAEDEADYYCQSYDSSLSGVVFGGGTKLTVLGQPKAAPSVTLFPPSSEELQANKATLVCLISDFYPGAVTVAWKADSSPVKAGVETTTPSKQSNNKYAASSYLSLTPEQWKSHRSYSCQVTHEGSTVEKTVAPTECS
EC50, fluorescence signal of rat NPR-A / CNGA2 (cGMP biosensor) / GCaMP6 CHO reporter cells (rat NPR-A): 1200 nM
EC50 on rNPRA reporter cells (rat NPR-A): > 1000 nM

B4: TPP-10282 (antibody, human IgG1, lambda)
heavy: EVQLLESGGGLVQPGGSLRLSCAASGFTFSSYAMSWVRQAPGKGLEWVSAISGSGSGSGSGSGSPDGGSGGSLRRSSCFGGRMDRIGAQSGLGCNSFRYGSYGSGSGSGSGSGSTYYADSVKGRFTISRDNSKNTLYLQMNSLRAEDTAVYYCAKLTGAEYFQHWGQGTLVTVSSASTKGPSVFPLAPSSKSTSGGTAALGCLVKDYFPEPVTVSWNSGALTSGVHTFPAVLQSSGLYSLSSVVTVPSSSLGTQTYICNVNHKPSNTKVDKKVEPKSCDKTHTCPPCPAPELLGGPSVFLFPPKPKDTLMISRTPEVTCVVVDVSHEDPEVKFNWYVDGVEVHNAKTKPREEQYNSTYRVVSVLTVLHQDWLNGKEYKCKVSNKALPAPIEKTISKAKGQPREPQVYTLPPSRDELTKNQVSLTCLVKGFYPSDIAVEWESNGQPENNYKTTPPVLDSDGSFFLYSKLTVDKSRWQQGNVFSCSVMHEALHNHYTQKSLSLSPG
light: B3 light
activity rcs (cGMP, hNPRA-CHO k1) (human NPRA [2]): 30%
average rel logEC50 (vs TPP-5661) (human NPRA [2]): 0.1
rel. activity rcs (delta logEC50 vs TPP-5661, hNPRA-CHO k1) (human NPRA [2]): 0.3
rel. logEC50 pcs 1 (vs TPP-5661, hNPRA-CHO k1) (human NPRA [2]): 0.3
rel. logEC50 pcs 2 (vs TPP-5661, hNPRA-CHO k1) (human NPRA [2]): -0.2
rel. logEC50 pcs 4 (vs TPP-5661, hNPRA-CHO k1) (human NPRA [2]): 0.1
rel. logEC50 pcs 5 (vs TPP-5661, hNPRA-CHO k1) (human NPRA [2]): 0.2

B5: TPP-10294 (antibody, human IgG1, lambda)
heavy: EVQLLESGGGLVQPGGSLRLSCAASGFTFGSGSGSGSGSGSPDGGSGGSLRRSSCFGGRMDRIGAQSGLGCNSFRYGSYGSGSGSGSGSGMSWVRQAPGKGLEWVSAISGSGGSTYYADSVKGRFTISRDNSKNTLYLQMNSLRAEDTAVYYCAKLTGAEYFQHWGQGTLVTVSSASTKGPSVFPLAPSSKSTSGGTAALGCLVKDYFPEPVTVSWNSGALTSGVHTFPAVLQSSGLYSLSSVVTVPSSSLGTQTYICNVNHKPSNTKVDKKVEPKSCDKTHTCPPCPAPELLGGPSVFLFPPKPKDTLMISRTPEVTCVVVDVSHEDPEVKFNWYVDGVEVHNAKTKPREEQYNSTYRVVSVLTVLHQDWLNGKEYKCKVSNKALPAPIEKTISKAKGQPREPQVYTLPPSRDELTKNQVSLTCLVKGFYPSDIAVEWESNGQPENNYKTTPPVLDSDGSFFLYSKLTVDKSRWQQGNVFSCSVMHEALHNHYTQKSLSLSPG
light: B3 light
activity rcs (cGMP, hNPRA-CHO k1) (human NPRA [2]): 41%
average rel logEC50 (vs TPP-5661) (human NPRA [2]): -0.3
rel. logEC50* pcs (vs TPP-5661, hNPRA-HEK293) (human NPRA [2]): -0.5 and -0.6 and -0.4
rel. logEC50 pcs 4 (vs TPP-5661, hNPRA-CHO k1) (human NPRA [2]): -0.2
rel. logEC50 pcs 7 (vs TPP-5661, hNPRA-CHO k1) (human NPRA [2]): 0

B6: TPP-10274 (antibody)
heavy: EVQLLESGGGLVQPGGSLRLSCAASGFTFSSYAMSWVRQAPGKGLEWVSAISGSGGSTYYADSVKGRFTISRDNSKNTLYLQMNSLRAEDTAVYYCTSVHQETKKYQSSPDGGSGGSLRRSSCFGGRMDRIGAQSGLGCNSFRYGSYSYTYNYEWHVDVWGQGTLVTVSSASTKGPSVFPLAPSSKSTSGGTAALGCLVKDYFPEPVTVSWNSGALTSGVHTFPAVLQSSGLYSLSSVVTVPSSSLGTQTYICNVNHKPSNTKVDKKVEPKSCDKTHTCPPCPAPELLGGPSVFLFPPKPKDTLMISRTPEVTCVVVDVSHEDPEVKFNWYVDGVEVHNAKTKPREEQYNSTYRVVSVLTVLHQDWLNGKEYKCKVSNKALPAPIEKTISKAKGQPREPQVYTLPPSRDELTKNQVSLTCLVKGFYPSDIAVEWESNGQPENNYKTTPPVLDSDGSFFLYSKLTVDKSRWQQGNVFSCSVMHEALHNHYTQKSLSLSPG
light: B3 light
activity rcs (cGMP, hNPRA-CHO k1) (human NPRA [2]): 71%
average rel logEC50 (vs TPP-5661) (human NPRA [2]): -0.1
rel. logEC50 pcs 2 (vs TPP-5661, hNPRA-CHO k1) (human NPRA [2]): -0.3
rel. logEC50 pcs 3 (vs TPP-5661, hNPRA-CHO k1) (human NPRA [2]): -0.2
rel. logEC50 pcs 7 (vs TPP-5661, hNPRA-CHO k1) (human NPRA [2]): 0

B7: TPP-10283 (antibody, human IgG1, lambda)
heavy: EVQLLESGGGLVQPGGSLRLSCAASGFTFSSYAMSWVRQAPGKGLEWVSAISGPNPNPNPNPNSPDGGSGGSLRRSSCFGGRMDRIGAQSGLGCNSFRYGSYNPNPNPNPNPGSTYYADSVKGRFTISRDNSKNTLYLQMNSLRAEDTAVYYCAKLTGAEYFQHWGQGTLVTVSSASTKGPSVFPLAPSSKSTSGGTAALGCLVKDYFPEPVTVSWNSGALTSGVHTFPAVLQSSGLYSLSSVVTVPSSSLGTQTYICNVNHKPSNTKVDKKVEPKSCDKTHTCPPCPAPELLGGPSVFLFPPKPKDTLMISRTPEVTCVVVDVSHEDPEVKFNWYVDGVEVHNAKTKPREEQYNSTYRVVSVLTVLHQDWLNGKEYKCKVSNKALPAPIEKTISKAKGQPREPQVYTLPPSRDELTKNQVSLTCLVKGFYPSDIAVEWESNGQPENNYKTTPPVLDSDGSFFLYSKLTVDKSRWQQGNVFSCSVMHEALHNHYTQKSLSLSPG
light: B3 light
activity rcs (cGMP, hNPRA-CHO k1) (human NPRA [2]): 83%
average rel logEC50 (vs TPP-5661) (human NPRA [2]): -0.8
rel. activity rcs (delta logEC50 vs TPP-5661, hNPRA-CHO k1) (human NPRA [2]): -0.8
rel. logEC50 pcs 5 (vs TPP-5661, hNPRA-CHO k1) (human NPRA [2]): -0.8

B8: TPP-13230 (antibody)
heavy: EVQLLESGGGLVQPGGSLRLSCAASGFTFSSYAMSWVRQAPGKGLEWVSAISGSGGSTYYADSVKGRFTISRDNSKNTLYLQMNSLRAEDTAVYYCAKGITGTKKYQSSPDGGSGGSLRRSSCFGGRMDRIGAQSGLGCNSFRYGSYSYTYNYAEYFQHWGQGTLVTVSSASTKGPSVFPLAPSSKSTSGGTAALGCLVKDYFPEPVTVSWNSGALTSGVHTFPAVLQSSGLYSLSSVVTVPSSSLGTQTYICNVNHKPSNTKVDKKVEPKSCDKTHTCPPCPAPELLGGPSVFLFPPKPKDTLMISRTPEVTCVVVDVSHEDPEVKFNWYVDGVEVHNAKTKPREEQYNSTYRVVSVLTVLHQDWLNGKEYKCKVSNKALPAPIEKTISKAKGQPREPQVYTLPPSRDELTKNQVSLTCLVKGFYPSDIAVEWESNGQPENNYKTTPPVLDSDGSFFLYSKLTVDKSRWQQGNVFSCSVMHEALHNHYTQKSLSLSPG
light: B3 light
average rel logEC50 (human NPRA [1]): -0.3 delta logEC50 vs TPP-5661
rel. logEC50 pcs 9 (human NPRA [1]): -0.3 delta logEC50 vs TPP-5661
